Measured values published in PMC6885550.
Like-named read-outs stand apart in the source and are kept apart here.

Experiments:
Experiment in all cases: FRET or BRET
[1] = target: YFP-DWORF (dwarf open reading frame) (UniProt P0DN84)
[2] = target: YFP-DWORF (dwarf open reading frame) (UniProt P0DN84); remark: listed apart in the source
[3] = target: YFP-sarcolipin (SLN) (UniProt O00631)
[4] = target: YFP-sarcolipin (SLN) (UniProt O00631); remark: listed apart in the source

Sequence of YFP-sarcolipin (SLN) (from UniProt O00631 1-31) (natural protein) (O00631 whole entry): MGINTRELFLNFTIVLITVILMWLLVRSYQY

| Substance | percent of donors in FRET (oligomer subpopulation) [1] | percent of donors in FRET (oligomer subpopulation) [2] | stoichiometry N [3] | stoichiometry N [4] |
| --- | --- | --- | --- | --- |
| YFP-DWORF (dwarf open reading frame) (from UniProt P0DN84 1-35) (natural protein) | 23.4% | 20% | – | – |
| YFP-sarcolipin (SLN) (from UniProt O00631 1-31) (natural protein) | – | – | 2 | > 2 |
